Experimental data reported in US20070065430A1 (GlaxoSmithKline, published 2007).

Columns and labels:
[1] = biological target: T1, recombinantly expressed human NOGO-A (hNOGO) (human, UniProt Q9NQC3 586-785, limits assumed); test: SPR, Biacore3000; hNOGO amine-coupled to CM5 chip, antibody in solution
T1 sequence (looked up): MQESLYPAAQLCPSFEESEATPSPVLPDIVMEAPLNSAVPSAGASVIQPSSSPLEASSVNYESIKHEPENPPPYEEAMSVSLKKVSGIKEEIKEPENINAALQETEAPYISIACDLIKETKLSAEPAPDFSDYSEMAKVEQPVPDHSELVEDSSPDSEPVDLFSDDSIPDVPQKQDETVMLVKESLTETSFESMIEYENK
Method: The binding kinetics of the anti-NOGO monoclonal antibody (mAb) to recombinantly expressed human NOGO-A (hNOGO) was analysed using the Biacore3000 biosensor. The methodology was as followed:
hNOGO was immobilised to a CM5 chip by primary amine coupling using the Biacore Wizard program designed for targeted immobilisation levels. The CM5 sensor surface was activated by passing a solution of 50 mM N-hydroxy-succinimide (NHS) and 200 mM N-ethyl-N′-dimethylaminopropyl carbonide (EDC). Then using a 300 nM solution of hNOGO in 5 mM sodium acetate, pH5.0, a range of concentrations between 50-200 resonance units of hNOGO were immobilised. After immobilisation was complete any still activated esters were blocked by an injection of 1 M ethanolamine hydrochloride, pH8.5.
The H1L11 mAb (see example 8) was diluted down in HBS-EP (10 mM HEPES, pH 7.4, 150 mM NaCl, 3 mM EDTA, and 0.005% P-20 surfactant) and binding studies were carried out at concentrations ranging between 0.1-100 nM. For kinetic analysis a flowrate of 60 μl/minute was used, with no mass transfer effects seen. All concentrations were performed in duplicate, in a random order with buffer blanks included. Regeneration was achieved either by the single injection of a 15 μl pulse of 50 mM sodium hydroxide alone or the injection of 15 μl of 100 mM H₃PO₄, followed by a subsequent injection of 15 μl of 50 mM sodium hydroxide. […] All runs were referenced against a blanked sensor surface (one that had been activated and blocked as described earlier but had no addition of ligand). Analysis of binding was carried out using the BIAevaluation kinetic analysis software version 4.1. Biacore analysis of other antibodies of the invention essentially followed the same protocol as described herein.

[2] = biological target: T2, GST-human NOGO-A56 fusion protein (amino acids 586-785 of human NOGO-A) (human, UniProt Q9NQC3 586-786); test: ELISA; GST-human NOGO-A56 coated at 1 µg/ml, anti-human kappa peroxidase detection
T2 construct: Expressed in E. coli BL21 and purified on glutathione-sepharose; Coated on plates for the ELISAs and dried onto wells for the neurite outgrowth assay; also called GST-NOGO-A56; GST-Nogo5&6
T2 sequence: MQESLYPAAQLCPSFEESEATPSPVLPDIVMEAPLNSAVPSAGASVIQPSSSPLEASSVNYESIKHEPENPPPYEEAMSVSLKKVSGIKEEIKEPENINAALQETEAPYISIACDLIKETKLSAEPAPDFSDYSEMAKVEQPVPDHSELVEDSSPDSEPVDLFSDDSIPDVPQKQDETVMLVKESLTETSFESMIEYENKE
Method: GST-human NOGO-A56 at 1 μg/ml in 50 mM Tris pH9.5 was coated onto Nunc Immunosorp plates (100 μl per well) at 4° C. overnight. Wells were rinsed once with TBS+0.05% tween then incubated with 2% BSA in TBS+0.05% tween to block non-specific binding sites at room temperature for Ihour. Antibodies were diluted in TBS+0.05% tween+2% BSA to 10 μg/ml and ½ dilutions made from this. Antibodies were added to wells in duplicate and incubated at room temperature for 1 hour. Wells were washed three times with TBS+0.05% tween then incubated with anti-human kappa peroxidase conjugate (1:2000) for 1 hour. Washed three times with TBS+0.05% tween and then incubated with 100 μl OPD peroxidase substrate (Sigma) per well for 10 minutes. The colour reaction was stopped by the addition of 25 μl concentrated H₂SO₄. Optical density at 490 nm was measured using a plate reader. Background values read from wells with no antibody were subtracted.
FIGS. 35A to C illustrates the dose-dependent binding of humanised antibody H1L11 in comparison with the chimera (HcLc) to human NOGO-A56 in an ELISA assay.

rat NOGO-A = biological target: T3, rat NOGO-A (rat, UniProt Q9JK11 173-975, limits assumed); test: SPR, Biacore; similar analysis using rat NOGO-A
T3 construct: Used in 'a similar analysis' by Biacore
T3 sequence (looked up): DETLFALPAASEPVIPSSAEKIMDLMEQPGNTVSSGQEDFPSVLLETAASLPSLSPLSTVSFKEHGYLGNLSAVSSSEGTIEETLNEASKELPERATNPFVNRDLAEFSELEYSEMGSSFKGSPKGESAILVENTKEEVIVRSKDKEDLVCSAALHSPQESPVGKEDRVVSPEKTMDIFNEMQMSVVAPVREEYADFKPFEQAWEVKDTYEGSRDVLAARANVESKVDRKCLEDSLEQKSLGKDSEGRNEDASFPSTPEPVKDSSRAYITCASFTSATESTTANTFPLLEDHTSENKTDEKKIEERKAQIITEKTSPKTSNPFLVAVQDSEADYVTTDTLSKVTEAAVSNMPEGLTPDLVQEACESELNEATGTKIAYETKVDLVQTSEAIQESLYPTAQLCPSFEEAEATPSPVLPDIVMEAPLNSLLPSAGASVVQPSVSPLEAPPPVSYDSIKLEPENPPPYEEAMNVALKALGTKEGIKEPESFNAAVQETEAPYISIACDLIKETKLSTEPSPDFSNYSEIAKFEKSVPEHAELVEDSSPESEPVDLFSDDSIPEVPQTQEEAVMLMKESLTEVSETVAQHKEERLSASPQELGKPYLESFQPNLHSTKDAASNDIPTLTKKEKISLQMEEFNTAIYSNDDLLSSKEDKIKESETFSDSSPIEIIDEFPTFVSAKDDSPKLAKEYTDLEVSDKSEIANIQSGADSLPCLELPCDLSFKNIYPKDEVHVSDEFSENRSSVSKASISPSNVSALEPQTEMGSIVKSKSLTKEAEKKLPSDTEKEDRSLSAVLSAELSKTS

B1: Chimeric 2A10 (HcLc) (antibody, human IgG1, kappa, V domains shown)
VH: QVQLQQPGTELVKPGASVKLSCKASGYTFTSYWMHWVKQRPGQGLEWIGNINPSNGGTNYNEKFKSKATLTVDKSSSTAYMQLSSLTSEDSAVYYCELGQGYWGQGTLVTVSS
VL: DIVITQDELSNPVTSGESVSISCRSSKSLLYKDGKTYLNWFLQRPGQSPQLLIYLMSTRASGVSDRFSGSGSGTDFTLEISRVKAEDVGVYYCQQLVEYPLTFGAGTKLELKR
notes: Murine 2A10 V regions on human IgG1/k wild type C regions; also called chimaera of 2A10; the chimera
**Q.** Which results are given for B1?
**A.** Kd [1]: 1.26 nM; koff [1]: 0.00249 s⁻¹; kon [1]: 2.23e+06 M⁻¹ s⁻¹; EC50 [2]: 0.022 µg/mL

B2: Anti-NOGO antibody 2C4/1 (mouse monoclonal) (antibody, V domains shown)
VH: EVQLVESGGGLVKPGGSLKLSCAASGFTFSCYAMSWVRQTPEKRLEWVASISDGGSYTYYPDNVKGRFTISRDNAKNNLYLQMSHLKSEDTAMYYCAKELLFDYWGQGTTLTVSS
VL: DVVMTQTPLSLPVSLGDQASISCRSSQSLVHSNGNTYLHWYLQKPGQSPKLLIYKVSNRFSGVPDRFSGSGSGTDFTLKISRVEAEDLGVYFCSQSTHVPLTFGAGTKLELK
notes: Mouse hybridoma antibody; also called Mouse 2C4
**Q.** Which Kd (rat NOGO-A) does the source give for B2 here?
**A.** 3.9 nM

**Q.** And the koff (rat NOGO-A)?
**A.** 0.000533 s⁻¹

**Q.** And the kon (rat NOGO-A)?
**A.** 162000 M⁻¹ s⁻¹

**Q.** And the Kd [1]?
**A.** 8 nM

**Q.** What about the koff [1] of the same binder?
**A.** 0.000644 s⁻¹

**Q.** And the kon [1]?
**A.** 80900 M⁻¹ s⁻¹

B3: Anti-NOGO antibody 15C3/3 (mouse monoclonal) (antibody, V domains shown)
VH: QVQLQQSGAELVKPGASVKISCKASGYAFSSYWMNWVKQRPGKGLEWIGQIYPGDGDTNYNGKFKGKATLTADKSSSTAYMQLSSLTSEDSAVYFCAVRFDYWGQGTTLTVSS
VL: DIVMTQAAPSVPVTPGESVSISCRSSKSLLHSNGNTYLYWFLQRPGQSPQLLIYRMSNLASGVPDRFSGSGSGTAFTLRISRVEAEDVGVYYCMQHLEYPLTFGAGTKLELK
notes: Mouse hybridoma antibody; also called Mouse 15C3
**Q.** What does the source list for B3?
**A.** Kd (rat NOGO-A): 24.9 nM; koff (rat NOGO-A): 0.00087 s⁻¹; kon (rat NOGO-A): 46000 M⁻¹ s⁻¹; Kd [1]: 17.5 nM; koff [1]: 0.000828 s⁻¹; kon [1]: 40700 M⁻¹ s⁻¹

B4: Anti-NOGO antibody 2A10/3 (mouse monoclonal) (antibody, V domains shown)
VH: QVQLQQPGTELVKPGASVKLSCKASGYTFTSYWMHWVKQRPGQGLEWIGNINPSNGGTNYNEKFKSKATLTVDKSSSTAYMQLSSLTSEDSAVYYCELGQGYWGQGTTLTVSS
VL: DIVITQDELSNPVTSGESVSISCRSSKSLLYKDGKTYLNWFLQRPGQSPQLLIYLMSTRASGVSDRFSGSGSGTDFTLEISRVKAEDVGVYYCQQLVEYPLTFGAGTKLELK
notes: Mouse hybridoma antibody; also called Mouse 2A10; 2A10-BR
**Q.** Which results are given for B4?
**A.** Kd (rat NOGO-A): 1 nM; koff (rat NOGO-A): 0.00101 s⁻¹; kon (rat NOGO-A): 1.26e+06 M⁻¹ s⁻¹; Kd [1]: 0.8 nM; koff [1]: 0.00184 s⁻¹; kon [1]: 2.9e+06 M⁻¹ s⁻¹

B5: Humanised anti-NOGO antibody H1L11 (antibody, V domains shown)
VH: QVQLVQSGAEVKKPGASVKVSCKASGYTFTSYWMHWVRQAPGQGLEWMGNINPSNGGTNYNEKFKSRVTMTRDTSTSTVYMELSSLRSEDTAVYYCELGQGYWGQGTTVTVSS
VL: DIVITQSPLSLPVTLGQPASISCRSSKSLLYKDGKTYLNWFQQRPGQSPQLLIYLMSTRASGVPDRFSGGGSGTDFTLKISRVEAEDVGVYYCQQLVEYPLTFGQGTKLEIK
notes: It was expressed transiently in CHO cells; also called H1l L11
**Q.** With B5 as the binder, how does the Kd [1] read?
**A.** 22.2 nM

**Q.** What about the koff [1] of the same binder?
**A.** 0.0215 s⁻¹

**Q.** And the kon [1]?
**A.** 1e+06 M⁻¹ s⁻¹

**Q.** And the EC50 [2]?
**A.** 0.118 µg/mL
